According to US20070014736A1, “Methods of delivering corticotroph-derived glycoprotein hormone” (priority 2005, published 2007):

Key:
adrenal glands = assay: Intraperitoneal recombinant CGH for two weeks, adrenal weight; assay type: in vivo, mice; conditions: 0.25 mg/kg CGH i.p. daily, day 15, female C57BL/6
From the text: Summary: Mice were exposed to CGH through infection with adenovirus particles expressing GPHA2 and GPHB5, leading to overexpression and secretion of CGH from the liver of these animals. […] The hypertrophy was apparent in the inner cortical layers, the zona fasciculata and the zona reticularis. Similarly, mice were exposed to CGH through intraperitoneal injection of recombinant CGH protein alone, recombinant CGH protein along with the glucocorticoid Dexamethasone (Dex), Dex alone, or PBS alone daily for two weeks.
Sixteen C57BL/6 female mice at 8 weeks of age were separated into four groups. The first group received daily injections of 0.25 mg/kg of recombinant CGH protein intraperitoneally. The second group received daily injections of PBS using the same procedure. The third group received daily injections of 0.25 mg/kg of CGH plus 0.05 mg/kg Dex and the final group received 0.5 mg/kg Dex, alone. Animals were sacrificed on day 15 and the adrenal glands were isolated and weighed. Example 5 describes the expression and purification of recombinant CGH protein used in this experiment.

human primary adipocytes = assay: CRE-luciferase reporter assay in human primary adipocytes; assay type: cell-based
From the text: Differentiated murine 3T3 L1 adipocytes and primary human adipocytes were used to study signal transduction of CGH. 3T3 L1 fibroblasts were differentiated into adipocytes and the cells were transduced with recombinant adenovirus containing a reporter construct, a firefly luciferase gene under the control of cAMP response element (CRE) enhancer sequences. This assay system detects cAMP-mediated gene induction downstream of activation of Gs-coupled G-protein coupled receptors (GPCR's). […] In a separate experiment, undifferentiated 3T3 L1 fibroblasts were transduced with the recombinant adenovirus. […] In another experiment, human primary adipocytes were also transduced with the recombinant adenovirus containing a reporter construct. Treatment of the human adipocytes with isoproterenol produced a 17-fold induction of luciferase expression.
Cells were cultured at 37° C. in an 8% CO2 humidified incubator. Cells were seeded to collagen-coated 96-well plates (Becton Dickinson, cat. #356407) at a density of 5,000 cells per well. […] Luciferase activity was measured on a microplate luminometer (PerkinElmer Life Sciences, Inc., model LB 96V2R) following automated injection of 40 μl of luciferase assay substrate into each well. […]

lipolysis in mice = assay: Stimulation of lipolysis in vivo, serum glycerol and FFA; conditions: fasted mice, IP; CGH 300 μg/kg, CL 1 mg/kg
Procedure: CGH, the β3-adrenoreceptor agonist CL 316,243 (CL), and saline vehicle were examined for stimulation of lipolysis in mice following an overnight fast. […] Lipolysis was assessed as the percent change in serum glycerol or FFA over the 2 hour period. The serum glycerol and FFA for the vehicle groups decreased by 7%±9% and 24%±15%, respectively. The serum glycerol for the CGH group increased by 57%±20%; p=0.0254, and the FFA levels increased 25%±5%; p=0.0188.
C57 BL/6 male mice, age 19 weeks, were grouped to normalize weight (n=4 for each treatment; average group weight=37.8 g±0.4 g). Mice were housed individually for 18 hours prior to treatment, at which time food was withdrawn, with free access to water given. At approximately 8 a.m., the subjects were anesthetized with halothane and blood samples taken by retro-orbital eye bleed. The blood was allowed to clot, and the serum was separated by centrifugation and frozen for later analysis. Test substances were administered by IP injection in a volume of 0.1 ml, and the animals replaced in their cages for 2 hours with free access to water. At 2 hours, the mice were sacrificed and blood drawn by cardiac puncture.
For measuring free fatty acids in serum, the method previously described for measuring free fatty acids in conditioned media was followed, with the following modifications. Wako reagents A and B were reconstituted to 2× the recommended concentration. 75 μl of Wako reagent A were added to 5 μl of oleic acid standard plus 5 μl of water. 75 μl of Wako reagent A were added to 5 μl of serum plus 5 μl of methanol (to mirror the oleic acid standard conditions). The 96-well plates were incubated at 37° C. for 10 minutes. 150 μl of Wako reagent B were added to each well. The 96-well plates were incubated at 37° C. for 10 minutes. The 96-well plates were allowed to sit at room temperature for 5 minutes. The 96-well plates were centrifuged in a Beckman Coulter Allegra 6R centrifuge at 3250×g for 5 minutes to remove air bubbles. The absorbance at 530 nm was measured on the Wallac Victor2 Multilabel counter.
For measuring glycerol in serum, the method previously described for measuring glycerol in conditioned media was followed, with the modifications described below.
Sigma reagent A was reconstituted to 0.5× the recommended concentration. 200 μl of Sigma reagent A were added to 10 μl of glycerol standard. 200 μl of Sigma reagent A were added to 5 μl of serum plus 5 μI of water. The 96-well plates were incubated for 15 minutes at room temperature. The 96-well plates were centrifuged in a Beckman Coulter Allegra 6R centrifuge at 3250×g for 5 minutes to remove air bubbles. The absorbance at 530 nm was measured on the Wallac Victor2 Multilabel counter.

B1: CGH: heterodimeric protein hormone comprised of alpha subunit GPHA2 and beta subunit GPHB5, recombinantly produced in CHO cells (protein)
chain 1: QEAVIPGCHLHPFNVTVRSDRQGTCQGSHVAQACVGHCESSAFPSRYSVLVASGYRHNITSVSQCCTISGLKKVKVQLQCVGSRREELEIFTARACQCDMCRLSRY
chain 2: ASSGNLRTFVGCAVREFTFLAKKPGCRGLRITTDACWGRCETWEKPILEPPYIEAHHRVCTYNETKQVTVKLPNCAPGVDPFYTYPVAIRCDCGACSTATTECETI
Average adrenal weight/100 g body weight (adrenal glands): 22.26 +/− 0.99
induction of luciferase expression / reporter gene (human primary adipocytes): 14 fold
percent change (increase) in serum FFA over 2 hours (lipolysis in mice): 25%±5%
percent change (increase) in serum glycerol over 2 hours (lipolysis in mice): 57%±20%
